{
  "source": "patent US9259479B2",
  "about": "“Treatment for comorbid diabetes with chronic kidney disease” (Eli Lilly and Company, priority 2012, dated 2016)",
  "details": "rat, in vivo",
  "note": "Read-outs that look alike come from different tables or passages of the source.",
  "procedure": "To induce diabetes, 10-week old male Harlan Sprague Dawley rats (Harlan, Indianapolis, Ind., USA) 250-280 g body weight, are dosed intravenously (IV) via tail vein with 45 mg/kg streptozotocin (STZ) in 0.5 M citric acid, pH 4.5, three days prior to study. […] Graphical and noncompartmental PK analyses are performed using SigmaPlot v11 (Systsat Software, Inc., San Jose, Calif.) and WinNonlin® Professional v5.3 (Pharsight®, St Louis, Mo., USA), respectively.",
  "data": [
    {"substance": "PEG20kDa-LysB29 human insulin", "values": [
      {"measurement": "Tmax", "setting": "male, Harlan Sprague Dawley, sc", "value": "12 ± 0", "unit": "h"},
      {"measurement": "CL/F", "setting": "male, Sprague Dawley, sc", "value": "1.13 ± 0.12", "unit": "mL/min/kg"},
      {"measurement": "PK profile of the two molecules compared", "value": "statistically similar"},
      {"measurement": "CL/F", "setting": "sc", "value": "1.67 ± 0.33", "unit": "mL/min/kg"},
      {"measurement": "Cmax", "setting": "sc, 93 nmol/kg", "value": "41.1 ± 6.3", "unit": "nM"}
    ]}
  ]
}
